Assay results: paper PMC10381268, “VEGF Detection via Impedance Spectroscopy on Surface Functionalized Interdigitated Biosensor”

Target: VEGF165 (vascular endothelial growth factor) (UniProt P15692-4 27-191)
Test: impedance spectroscopy on aptamer-grafted interdigitated sensor; 5 and 50 pM VEGF in PBS; 10 kHz impedance 50.32 (water), 28.90 (5 pM), 12.81 kOhm (50 pM); proteins diluted in PBS (5 and 50 pM), about 25 °C, impedance 2.5-100 kHz; aptamer grafted at 50 nM, pH 8, 24 h; water pH 7 as control
Details: protein: commercial; chain copies: 2

VEGF165 (vascular endothelial growth factor), sequence (P15692 other isoform, or with tags, fused parts or gaps): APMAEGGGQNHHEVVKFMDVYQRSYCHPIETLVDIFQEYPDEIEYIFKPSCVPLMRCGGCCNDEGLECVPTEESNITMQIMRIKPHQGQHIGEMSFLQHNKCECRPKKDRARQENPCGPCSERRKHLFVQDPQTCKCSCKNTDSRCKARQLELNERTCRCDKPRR

B1: VEGF165 DNA aptamer (ssDNA)
DNA: ATACCAGTCTATTCAATTGGGCCCGTCCGTATGGTGGGTGTGCTGGCCAGATAGTATGTGCAATCA
modifications: grafted on NHS-functionalized mercapto monolayer; attachment group on the DNA not stated
Question: Does B1 bind?
Answer: Result: binds
